Where a chain is given by its changes, count along the chain named.
T1: human beta-Klotho (KLB) (human, UniProt Q86Z14 53-997)
T1 construct: also called human KLB
T1 sequence (looked up): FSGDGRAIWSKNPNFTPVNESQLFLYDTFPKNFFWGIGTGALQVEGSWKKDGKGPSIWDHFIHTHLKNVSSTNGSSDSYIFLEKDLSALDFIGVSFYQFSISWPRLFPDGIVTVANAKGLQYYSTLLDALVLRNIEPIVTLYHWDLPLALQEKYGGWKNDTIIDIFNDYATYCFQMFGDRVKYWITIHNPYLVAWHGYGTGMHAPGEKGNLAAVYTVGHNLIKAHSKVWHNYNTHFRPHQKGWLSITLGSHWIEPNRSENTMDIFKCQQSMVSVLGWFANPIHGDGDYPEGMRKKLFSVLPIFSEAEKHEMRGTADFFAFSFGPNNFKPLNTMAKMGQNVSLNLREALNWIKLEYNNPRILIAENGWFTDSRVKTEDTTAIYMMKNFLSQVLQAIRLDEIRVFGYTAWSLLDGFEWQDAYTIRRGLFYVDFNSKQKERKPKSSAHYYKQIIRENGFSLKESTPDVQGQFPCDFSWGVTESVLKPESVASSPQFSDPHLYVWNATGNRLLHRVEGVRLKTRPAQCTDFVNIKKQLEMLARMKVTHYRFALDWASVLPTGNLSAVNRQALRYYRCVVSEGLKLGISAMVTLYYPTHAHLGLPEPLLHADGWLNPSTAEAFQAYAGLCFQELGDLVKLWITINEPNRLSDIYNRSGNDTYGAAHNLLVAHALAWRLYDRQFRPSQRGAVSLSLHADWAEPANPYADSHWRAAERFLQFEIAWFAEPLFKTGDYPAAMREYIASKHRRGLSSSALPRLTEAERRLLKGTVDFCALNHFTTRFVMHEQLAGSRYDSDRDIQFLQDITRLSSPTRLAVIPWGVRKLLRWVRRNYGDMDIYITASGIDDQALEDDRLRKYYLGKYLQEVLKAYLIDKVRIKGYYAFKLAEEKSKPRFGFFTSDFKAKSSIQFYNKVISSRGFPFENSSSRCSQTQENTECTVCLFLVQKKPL

B1: 16H7 variant, light chain N26Y (antibody, human IgG4 S228P, lambda, V domains shown)
VH: not shown
VL: SYVLTQPPSVSVAPGQTARITCGGNYIGSESVHWYQQKPGQAPVLVVYDDSDRPSGIPERFSGSNSGNTATLTISRVEAGDEADYYCQVWDGNSDHVVFGGGTKLTVLG
notes: IgG4 backbone
B2: 16H7 variant, light chain P54R (antibody, human IgG4 S228P, lambda, V domains shown)
VH: not shown
VL: B1 VL with Y26N, P54R
notes: IgG4 backbone
B3: 16H7 variant, light chain P54I (antibody, human IgG4 S228P, lambda, V domains shown)
VH: not shown
VL: B1 VL with Y26N, P54I
notes: IgG4 backbone
B4: 16H7 variant, light chain S55F (antibody, IgG4, V domains shown)
VH: not shown
VL: B1 VL with Y26N, S55F
notes: IgG4 backbone; copies: 2 + 2
B5: 16H7 variant, light chain R53L (antibody, human IgG4 S228P, lambda, V domains shown)
VH: not shown
VL: B1 VL with Y26N, R53L
notes: IgG4 backbone
B6: 16H7 variant, light chain R53S (antibody, human IgG4 S228P, lambda, V domains shown)
VH: not shown
VL: B1 VL with Y26N, R53S
notes: IgG4 backbone
B7: 16H7 variant, light chain P54M (antibody, human IgG4 S228P, lambda, V domains shown)
VH: not shown
VL: B1 VL with Y26N, P54M
notes: IgG4 backbone
B8: 16H7 variant, light chain S55E (antibody, IgG4, V domains shown)
VH: not shown
VL: B1 VL with Y26N, S55E
notes: IgG4 backbone; copies: 2 + 2
B9: 16H7 variant, light chain R53A (antibody, human IgG4 S228P, lambda, V domains shown)
VH: not shown
VL: B1 VL with Y26N, R53A
notes: IgG4 backbone
B10: 16H7 variant, light chain P54G (antibody, human IgG4 S228P, lambda, V domains shown)
VH: not shown
VL: B1 VL with Y26N, P54G
notes: IgG4 backbone
B11: 16H7 variant, light chain R53Q (antibody, human IgG4 S228P, lambda, V domains shown)
VH: not shown
VL: B1 VL with Y26N, R53Q
notes: IgG4 backbone
B12: 16H7 variant, light chain Q88A (antibody, human IgG4 S228P, lambda, V domains shown)
VH: not shown
VL: B1 VL with Y26N, Q88A
notes: IgG4 backbone
B13: 16H7 variant, light chain Q88M (antibody, IgG4, V domains shown)
VH: not shown
VL: B1 VL with Y26N, Q88M
notes: IgG4 backbone; copies: 2 + 2
B14: 16H7 variant, light chain P54S (antibody, human IgG4 S228P, lambda, V domains shown)
VH: not shown
VL: B1 VL with Y26N, P54S
notes: IgG4 backbone
B15: 16H7 variant, light chain P54C (antibody, human IgG4 S228P, lambda, V domains shown)
VH: not shown
VL: B1 VL with Y26N, P54C
notes: IgG4 backbone
B16: 16H7 variant, light chain P54N (antibody, human IgG4 S228P, lambda, V domains shown)
VH: not shown
VL: B1 VL with Y26N, P54N
notes: IgG4 backbone
B17: 16H7 variant, light chain R53C (antibody, human IgG4 S228P, lambda, V domains shown)
VH: not shown
VL: B1 VL with Y26N, R53C
notes: IgG4 backbone
B18: 16H7 variant, light chain S55D (antibody, human IgG4 S228P, lambda, V domains shown)
VH: not shown
VL: B1 VL with Y26N, S55D
notes: IgG4 backbone
B19: 16H7 variant, light chain S51G (antibody, human IgG4 S228P, lambda, V domains shown)
VH: not shown
VL: B1 VL with Y26N, S51G
notes: IgG4 backbone
B20: 16H7 variant, light chain P54F (antibody, human IgG4 S228P, lambda, V domains shown)
VH: not shown
VL: B1 VL with Y26N, P54F
notes: IgG4 backbone
B21: 16H7 variant, light chain R53K (antibody, human IgG4 S228P, lambda, V domains shown)
VH: not shown
VL: B1 VL with Y26N, R53K
notes: IgG4 backbone
B22: 16H7 variant, light chain R53P (antibody, human IgG4 S228P, lambda, V domains shown)
VH: not shown
VL: B1 VL with Y26N, R53P
notes: IgG4 backbone
B23: 16H7 variant, light chain P54D (antibody, human IgG4 S228P, lambda, V domains shown)
VH: not shown
VL: B1 VL with Y26N, P54D
notes: IgG4 backbone
B24: 16H7 variant, light chain Q88L (antibody, IgG4, V domains shown)
VH: not shown
VL: B1 VL with Y26N, Q88L
notes: IgG4 backbone; copies: 2 + 2
B25: 16H7 variant, light chain P54T (antibody, human IgG4 S228P, lambda, V domains shown)
VH: not shown
VL: B1 VL with Y26N, P54T
notes: IgG4 backbone
B26: 16H7 variant, light chain R53H (antibody, human IgG4 S228P, lambda, V domains shown)
VH: not shown
VL: B1 VL with Y26N, R53H
notes: IgG4 backbone
B27: 16H7 variant, light chain P54L (antibody, human IgG4 S228P, lambda, V domains shown)
VH: not shown
VL: B1 VL with Y26N, P54L
notes: IgG4 backbone
B28: 16H7 variant, light chain R53M (antibody, human IgG4 S228P, lambda, V domains shown)
VH: not shown
VL: B1 VL with Y26N, R53M
notes: IgG4 backbone
B29: 16H7 variant, light chain P54V (antibody, human IgG4 S228P, lambda, V domains shown)
VH: not shown
VL: B1 VL with Y26N, P54V
notes: IgG4 backbone
B30: 16H7 variant, light chain Q88G (antibody, human IgG4 S228P, lambda, V domains shown)
VH: not shown
VL: B1 VL with Y26N, Q88G
notes: IgG4 backbone
B31: 16H7 variant, light chain P54Y (antibody, human IgG4 S228P, lambda, V domains shown)
VH: not shown
VL: B1 VL with Y26N, P54Y
notes: IgG4 backbone
B32: 16H7 variant, light chain S55G (antibody, human IgG4 S228P, lambda, V domains shown)
VH: not shown
VL: B1 VL with Y26N, S55G
notes: IgG4 backbone
B33: 16H7 variant, light chain S55C (antibody, human IgG4 S228P, lambda, V domains shown)
VH: not shown
VL: B1 VL with Y26N, S55C
notes: IgG4 backbone
B34: 16H7 variant, light chain S55H (antibody, human IgG4 S228P, lambda, V domains shown)
VH: not shown
VL: B1 VL with Y26N, S55H
notes: IgG4 backbone
B35: 16H7 variant, light chain R53I (antibody, human IgG4 S228P, lambda, V domains shown)
VH: not shown
VL: B1 VL with Y26N, R53I
notes: IgG4 backbone
B36: 16H7 variant, light chain P54H (antibody, human IgG4 S228P, lambda, V domains shown)
VH: not shown
VL: B1 VL with Y26N, P54H
notes: IgG4 backbone
B37: 16H7 variant, light chain R53T (antibody, human IgG4 S228P, lambda, V domains shown)
VH: not shown
VL: B1 VL with Y26N, R53T
notes: IgG4 backbone
B38: 16H7 variant, light chain P54W (antibody, human IgG4 S228P, lambda, V domains shown)
VH: not shown
VL: B1 VL with Y26N, P54W
notes: IgG4 backbone
B39: 16H7 variant, light chain P54K (antibody, human IgG4 S228P, lambda, V domains shown)
VH: not shown
VL: B1 VL with Y26N, P54K
notes: IgG4 backbone

Columns and labels:
[1] = molecular target: human FGFR1c/KLB cell surface receptor complex on iLite FGF21 reporter cells (human, UniProt P11362 22-822; Q86Z14 1-1044); assay: cell-based or functional assay; on Mean E max (%): reference of the scale not given here
human beta-Klotho (KLB) = molecular target: T1, human beta-Klotho (KLB); assay: BLI off-rate screen (Octet), Ab captured via Fc;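 further: antibody supernatants applied at 25 µg/mL, dissociation monitored over 1800 s in D-PBS with 0.1% BSA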

Sequence of human FGFR1c/KLB cell surface receptor complex on iLite FGF21 reporter cells (P11362 22-822, chain 1 of 2): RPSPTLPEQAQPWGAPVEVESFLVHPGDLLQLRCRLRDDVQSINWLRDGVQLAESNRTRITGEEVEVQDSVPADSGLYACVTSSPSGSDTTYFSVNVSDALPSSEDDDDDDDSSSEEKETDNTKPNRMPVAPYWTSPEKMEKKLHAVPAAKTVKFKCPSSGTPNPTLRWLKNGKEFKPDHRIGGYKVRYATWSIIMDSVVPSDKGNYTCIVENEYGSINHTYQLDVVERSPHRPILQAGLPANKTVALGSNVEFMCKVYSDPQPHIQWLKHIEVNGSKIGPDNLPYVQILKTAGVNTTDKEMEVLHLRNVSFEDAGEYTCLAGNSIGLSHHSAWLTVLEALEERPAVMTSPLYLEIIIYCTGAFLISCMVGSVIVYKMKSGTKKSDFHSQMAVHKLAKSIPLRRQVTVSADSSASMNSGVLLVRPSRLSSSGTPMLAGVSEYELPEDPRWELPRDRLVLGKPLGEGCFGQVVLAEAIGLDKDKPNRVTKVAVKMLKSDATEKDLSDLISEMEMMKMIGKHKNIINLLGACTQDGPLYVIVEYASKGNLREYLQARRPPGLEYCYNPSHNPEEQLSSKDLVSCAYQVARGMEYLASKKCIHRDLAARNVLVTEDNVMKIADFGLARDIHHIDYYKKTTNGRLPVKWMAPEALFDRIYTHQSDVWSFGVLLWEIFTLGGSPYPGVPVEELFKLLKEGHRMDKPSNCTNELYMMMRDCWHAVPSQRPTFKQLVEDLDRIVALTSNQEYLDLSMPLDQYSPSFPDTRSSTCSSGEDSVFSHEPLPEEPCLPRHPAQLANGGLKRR
Sequence of human FGFR1c/KLB cell surface receptor complex on iLite FGF21 reporter cells (Q86Z14 whole entry, chain 2 of 2): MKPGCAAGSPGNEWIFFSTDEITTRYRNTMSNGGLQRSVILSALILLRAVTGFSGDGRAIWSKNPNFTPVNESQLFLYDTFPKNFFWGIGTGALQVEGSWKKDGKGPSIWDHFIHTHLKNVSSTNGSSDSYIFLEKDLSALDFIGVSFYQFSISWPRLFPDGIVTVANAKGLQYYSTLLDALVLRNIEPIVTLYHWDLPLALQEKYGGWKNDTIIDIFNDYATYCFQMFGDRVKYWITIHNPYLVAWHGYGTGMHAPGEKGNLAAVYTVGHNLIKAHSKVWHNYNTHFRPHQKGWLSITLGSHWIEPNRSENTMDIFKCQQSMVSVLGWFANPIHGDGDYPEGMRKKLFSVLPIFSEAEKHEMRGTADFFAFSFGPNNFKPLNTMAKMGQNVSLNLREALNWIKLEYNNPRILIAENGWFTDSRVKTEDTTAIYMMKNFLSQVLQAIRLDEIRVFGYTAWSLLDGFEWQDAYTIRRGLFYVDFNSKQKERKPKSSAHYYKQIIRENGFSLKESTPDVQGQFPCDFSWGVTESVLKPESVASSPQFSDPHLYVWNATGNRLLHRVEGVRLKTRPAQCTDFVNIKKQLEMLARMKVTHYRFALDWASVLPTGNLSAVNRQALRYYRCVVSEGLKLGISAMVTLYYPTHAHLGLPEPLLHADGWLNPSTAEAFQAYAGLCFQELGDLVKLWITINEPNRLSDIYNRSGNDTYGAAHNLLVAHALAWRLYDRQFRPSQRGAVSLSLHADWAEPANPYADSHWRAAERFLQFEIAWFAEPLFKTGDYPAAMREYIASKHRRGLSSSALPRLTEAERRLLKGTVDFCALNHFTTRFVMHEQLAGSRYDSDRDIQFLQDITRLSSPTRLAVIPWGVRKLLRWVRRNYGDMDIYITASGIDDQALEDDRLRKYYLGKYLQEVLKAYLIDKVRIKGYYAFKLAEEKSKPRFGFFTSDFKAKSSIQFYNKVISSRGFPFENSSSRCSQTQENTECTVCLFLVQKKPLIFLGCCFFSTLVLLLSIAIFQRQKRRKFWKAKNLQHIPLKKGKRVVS

Row | Binder | Mean E max (%) [1] | Mean EC50 [1] | koff (human beta-Klotho (KLB))
1 | B1 | 110% | 0.124 nM | 3.7e-05 s⁻¹
2 | B2 | 104% | 0.111 nM | 0.00011 s⁻¹
3 | B3 | 112% | 0.115 nM | 3.5e-05 s⁻¹
4 | B4 | 97% | 0.095 nM | 2.4e-05 s⁻¹
5 | B5 | 106% | 0.151 nM | 2e-05 s⁻¹
6 | B6 | 105% | 0.113 nM | 0.00029 s⁻¹
7 | B7 | 98% | 0.087 nM | 3.2e-05 s⁻¹
8 | B8 | 106% | 0.141 nM | 3.8e-05 s⁻¹
9 | B9 | 89% | 0.132 nM | 0.0002 s⁻¹
10 | B10 | 114% | 0.141 nM | 5.1e-05 s⁻¹
11 | B11 | 100% | 0.131 nM | 0.00024 s⁻¹
12 | B12 | 108% | 0.133 nM | 0.00011 s⁻¹
13 | B13 | 90% | 0.104 nM | 9.9e-05 s⁻¹
14 | B14 | 102% | 0.103 nM | 7.9e-05 s⁻¹
15 | B15 | 100% | 0.116 nM | 0.00012 s⁻¹
16 | B16 | 105% | 0.15 nM | 0.00014 s⁻¹
17 | B17 | 107% | 0.147 nM | 0.00044 s⁻¹
18 | B18 | 109% | 0.146 nM | 3.6e-05 s⁻¹
19 | B19 | 104% | 0.129 nM | 0.0001 s⁻¹
20 | B20 | 105% | 0.143 nM | 0.00012 s⁻¹

Row | Binder | Mean E max (%) [1] | Mean EC50 [1] | koff (human beta-Klotho (KLB))
21 | B21 | 98% | 0.114 nM | 4e-05 s⁻¹
22 | B22 | 92% | 0.126 nM | 0.00028 s⁻¹
23 | B23 | 96% | 0.115 nM | 0.00028 s⁻¹
24 | B24 | 107% | 0.134 nM | 9.9e-05 s⁻¹
25 | B25 | 108% | 0.113 nM | 0.00018 s⁻¹
26 | B26 | 103% | 0.153 nM | 0.00015 s⁻¹
27 | B27 | 108% | 0.133 nM | 9.6e-05 s⁻¹
28 | B28 | 95% | 0.099 nM | 0.00018 s⁻¹
29 | B29 | 109% | 0.11 nM | 4.1e-05 s⁻¹
30 | B30 | 110% | 0.129 nM | 0.00017 s⁻¹
31 | B31 | 110% | 0.15 nM | 8.3e-05 s⁻¹
32 | B32 | 104% | 0.128 nM | 3.5e-05 s⁻¹
33 | B33 | 91% | 0.244 nM | 6.3e-05 s⁻¹
34 | B34 | 111% | 0.122 nM | 4e-06 s⁻¹
35 | B35 | 100% | 0.151 nM | 1.7e-05 s⁻¹
36 | B36 | 100% | 0.111 nM | 0.00014 s⁻¹
37 | B37 | 109% | 0.134 nM | 8.7e-05 s⁻¹
38 | B38 | 98% | 0.091 nM | 0.00017 s⁻¹
39 | B39 | 100% | 0.131 nM | 0.00016 s⁻¹

From patent US20220010021A1 (Sanofi, published 2022)
